From patent publication US20230021388A1 (VELOSBIO, published 2023)
Residue numbers refer to the chain shown, from its start. Names and notes keep the numbering of the source.

B1: Ab1 Fab variant H1 T32E (Fab, V domains shown)
VH: QVQLQESGPGLVKPSQTLSLTCTVSGYAFEAYNIHWVRQAPGQGLEWMGSFDPYDGGSSYNQKFKDRLTISKDTSKNQVVLTMTNMDPVDTATYYCARGWYYFDYWGHGTLVTVSS
VL: DIVMTQTPLSLPVTPGEPASISCRASKSISKYLAWYQQKPGQAPRLLIYSGSTLQSGIPPRFSGSGYGTDFTLTINNIESEDAAYYFCQQHDESPYTFGEGTKVEIK
notes: Fab
B2: Ab1 Fab variant H3 W110M (Fab, V domains shown)
VH: B1 VH with E30T, W100M
VL: B1 VL
notes: Fab
B3: Ab1 Fab variant H3 W110Y (Fab, V domains shown)
VH: B1 VH with E30T, W100Y
VL: B1 VL
notes: Fab
B4: Ab1 Fab variant H3 W110F (Fab, V domains shown)
VH: B1 VH with E30T, W100F
VL: B1 VL
notes: Fab
B5: Ab1 Fab variant H3 W110H (Fab, V domains shown)
VH: B1 VH with E30T, W100H
VL: B1 VL
notes: Fab
B6: Ab1 Fab variant H1 T32A + L1 A25P (Fab, V domains shown)
VH: B1 VH with E30A
VL: B1 VL with A25P
notes: Fab
B7: Ab1 Fab variant H1 T32A + L1 A25P + L2 T69R (Fab, V domains shown)
VH: B1 VH with E30A
VL: B1 VL with A25P, T53R
notes: Fab
B8: Ab1 Fab variant H1 T32A + L1 A25P, K29S + L2 T69R (Fab, V domains shown)
VH: B1 VH with E30A
VL: B1 VL with A25P, K27S, T53R
notes: Fab
B9: Ab1 Fab variant H1 T32A + L1 K29E (Fab, V domains shown)
VH: B1 VH with E30A
VL: B1 VL with K27E
notes: Fab
B10: Ab1 Fab variant H1 T32A + L1 K29E + L2 T69R (Fab, V domains shown)
VH: B1 VH with E30A
VL: B1 VL with K27E, T53R
notes: Fab
B11: Ab1 Fab variant H1 T32A + L1 K29S (Fab, V domains shown)
VH: B1 VH with E30A
VL: B1 VL with K27S
notes: Fab
B12: Ab1 Fab variant H1 T32A + L1 K29S + L2 T69R (Fab, V domains shown)
VH: B1 VH with E30A
VL: B1 VL with K27S, T53R
notes: Fab
B13: Ab1 Fab variant H1 T32A + L2 T69R (Fab, V domains shown)
VH: B1 VH with E30A
VL: B1 VL with T53R
notes: Fab
B14: Ab1 Fab variant H1 T32A + L2 L70K (Fab, V domains shown)
VH: B1 VH with E30A
VL: B1 VL with L54K
notes: Fab
B15: Ab1 Fab variant H1 T32A + L2 L70K, Q71T (Fab, V domains shown)
VH: B1 VH with E30A
VL: B1 VL with L54K, Q55T
notes: Fab
B16: Ab1 Fab variant H1 T32A + L2 T69H (Fab, V domains shown)
VH: B1 VH with E30A
VL: B1 VL with T53H
notes: Fab
B17: Ab1 Fab variant H1 T32A + L2 T69H, L70K (Fab, V domains shown)
VH: B1 VH with E30A
VL: B1 VL with T53H, L54K
notes: Fab
B18: Ab1 Fab variant H1 T32A + L2 T69H, L70K, Q71T (Fab, V domains shown)
VH: B1 VH with E30A
VL: B1 VL with T53H, L54K, Q55T
notes: Fab
B19: Ab1 Fab variant H1 T32A + L2 T69R, Q71T (Fab, V domains shown)
VH: B1 VH with E30A
VL: B1 VL with T53R, Q55T
notes: Fab
B20: Ab1 Fab variant H1 T32A + H2 F58V (Fab, V domains shown)
VH: B1 VH with E30A, F51V
VL: B1 VL
notes: Fab
B21: Ab1 Fab variant H1 T32A + H2 F58V, G66E (Fab, V domains shown)
VH: B1 VH with E30A, F51V, G56E
VL: B1 VL
notes: Fab
B22: Ab1 Fab variant H1 T32A + H2 F58V, G66E, S69V (Fab, V domains shown)
VH: B1 VH with E30A, F51V, G56E, S59V
VL: B1 VL
notes: Fab
B23: Ab1 Fab variant H1 T32A + H2 F58V, N71H (Fab, V domains shown)
VH: B1 VH with E30A, F51V, N61H
VL: B1 VL
notes: Fab
B24: Ab1 Fab variant H1 T32A + H2 F58V, S69V, N71H (Fab, V domains shown)
VH: B1 VH with E30A, F51V, S59V, N61H
VL: B1 VL
notes: Fab
B25: Ab1 Fab variant H1 T32A + H2 G66E (Fab, V domains shown)
VH: B1 VH with E30A, G56E
VL: B1 VL
notes: Fab
B26: Ab1 Fab variant H1 T32A + H2 G66E, S69V, N71H (Fab, V domains shown)
VH: B1 VH with E30A, G56E, S59V, N61H
VL: B1 VL
notes: Fab
B27: Ab1 Fab variant H1 T32A + H2 N71H (Fab, V domains shown)
VH: B1 VH with E30A, N61H
VL: B1 VL
notes: Fab
B28: Ab1 Fab variant H1 T32A + H2 S69V (Fab, V domains shown)
VH: B1 VH with E30A, S59V
VL: B1 VL
notes: Fab
B29: Ab1 Fab variant H1 T32A + L1 A25P + L2 L70K (Fab, V domains shown)
VH: B1 VH with E30A
VL: B1 VL with A25P, L54K
notes: Fab
B30: Ab1 Fab variant H1 T32A + L1 A25P + L2 Q71T (Fab, V domains shown)
VH: B1 VH with E30A
VL: B1 VL with A25P, Q55T
notes: Fab
B31: Ab1 Fab variant H1 T32A + L1 A25P + L2 T69H (Fab, V domains shown)
VH: B1 VH with E30A
VL: B1 VL with A25P, T53H
notes: Fab

Target: T1, recombinant human ROR1 extracellular domain (human, UniProt Q01973 30-406)
T1 construct: biotinylated for the filter lifts; also called huROR1-ECD; human ROR1-ECD
T1 sequence (Q01973 30-406 limits assumed): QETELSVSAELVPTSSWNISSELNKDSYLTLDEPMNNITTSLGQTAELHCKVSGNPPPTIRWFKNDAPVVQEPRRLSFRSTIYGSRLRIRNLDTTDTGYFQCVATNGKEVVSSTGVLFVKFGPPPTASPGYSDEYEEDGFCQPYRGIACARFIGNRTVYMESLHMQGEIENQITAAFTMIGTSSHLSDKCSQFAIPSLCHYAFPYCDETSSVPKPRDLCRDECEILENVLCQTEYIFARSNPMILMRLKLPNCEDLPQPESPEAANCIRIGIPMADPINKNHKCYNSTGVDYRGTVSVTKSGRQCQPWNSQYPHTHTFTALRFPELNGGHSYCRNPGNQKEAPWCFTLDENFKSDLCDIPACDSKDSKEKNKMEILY
Test: ELISA, soluble Fab on coated huROR1-ECD

Row | fold increase of binding against Ab1 | fold reduction of binding against Ab1 | Binder
1 | ~2 fold | – | B1
2 | – | 10 to 23 fold | B2
3 | – | 10 to 23 fold | B3

Target: T1, recombinant human ROR1 extracellular …
Test: ELISA, soluble Fab on coated huROR1-ECD
Remark: another data set of the same source
Protocol: (§1) The previously described filter lift assay provides a visual, qualitative assessment of antigen binding (Example 1). In order to assess the ROR1 binding activity of Ab1 Fab in a more quantitative fashion, an ELISA assay was developed. A 96-well Costar-3366 plate was coated with 50 μL/well of 1 μg/mL human ROR1-ECD (ACROBiosystems, cat. #RO1-H522y) in PBS overnight at 4° C. The plate was rinsed once with PBS-T and blocked with 100 μL/well of 5% M-P for 1 h at 25° C. Fab samples were serially diluted 3-fold using 5% M-P and 50 μL/well was incubated for 1 h at 25° C. The plate was washed three times with PBS-T and 50 μL/well anti-human kappa, and HRP conjugate (Southern Biotech, cat. #2060-05) diluted 10,000-fold in 5% M-P was added for 1 h at 25° C. In certain assays (extended wash format), the plate was placed in large volumes (up to 1 L) of PBS-T and incubated, with mixing, for 2-5 h prior to the addition of anti-human kappa, HRP conjugate. The plate was washed three times with PBS-T, and developed with 50 μL/well 1-Step Ultra TMB-ELISA (Thermo Scientific, cat. #34028). The reaction was terminated by the addition of 2 N H2504 and the A450 was determined using a Spectramax plate reader.

Row | Kd | Binder
4 | 3.3 nM | B1

Target: T1, recombinant human ROR1 extracellular …
Test: ELISA, soluble Fab on coated huROR1-ECD
Remark: another data set of the same source
Protocol: as §1

Row | Kd | Binder
5 | 96 nM | B4
6 | 110 nM | B5
7 | 160 nM | B2
8 | 68 nM | B3

Target: T1, recombinant human ROR1 extracellular …
Test: ELISA with prolonged wash, soluble Fab on coated huROR1-ECD
Protocol: as §1
(§2) Subsequently, the libraries were screened by capture lift to identify the strongest binding variants. The identity of the variants was determined by DNA sequencing and the relative affinities were characterized using an ELISA (described in Example 2) modified to enable further discrimination between the highest affinity variants. Specifically, following the initial incubation with soluble Fab, the plates were washed for a prolonged time (>1 h) in large volumes of PBS-T. The plates were then developed as described in Example 2.

Row | Kd | Binder
9 | 1.8 nM | B6
10 | 2.1 nM | B7
11 | 3.9 nM | B8
12 | 3.3 nM | B9
13 | 4.8 nM | B10
14 | 2.1 nM | B11
15 | 2.1 nM | B12
16 | 2.3 nM | B13

Target: T1, recombinant human ROR1 extracellular …
Test: as above
Remark: another data set of the same source
Protocol: as §1, §2

Row | Kd | Binder
17 | 1.6 nM | B14
18 | 1.6 nM | B15
19 | 2.3 nM | B16
20 | 1.8 nM | B17
21 | 1.4 nM | B18
22 | 1.1 nM | B13
23 | 1.1 nM | B19

Target: T1, recombinant human ROR1 extracellular …
Test: as above
Remark: another data set of the same source
Protocol: as §1, §2

Row | Kd | Binder
24 | 3.2 nM | B20
25 | 3 nM | B21
26 | 8 nM | B22
27 | 2.4 nM | B23
28 | 3.9 nM | B24
29 | 2.7 nM | B25
30 | 3.2 nM | B26
31 | 2.1 nM | B27
32 | 3.3 nM | B28

Target: T1, recombinant human ROR1 extracellular …
Test: as above
Remark: another data set of the same source
Protocol: as §1, §2

Row | Kd | Binder
33 | 1.8 nM | B6
34 | 2.1 nM | B29
35 | 2.9 nM | B30
36 | 2.3 nM | B31
37 | 2.4 nM | B7

Target: T2, human ROR1 on live cells (human, UniProt Q01973 30-937)
T2 construct: ROR1-transfected MEC cells (~56,000 copies/cell) or JeKo-1 cells (~13,000 copies/cell); the cell line is named under assay; also called ROR1-transfected MEC cells; JeKo-1 cells
T2 sequence (Q01973 30-937 limits assumed): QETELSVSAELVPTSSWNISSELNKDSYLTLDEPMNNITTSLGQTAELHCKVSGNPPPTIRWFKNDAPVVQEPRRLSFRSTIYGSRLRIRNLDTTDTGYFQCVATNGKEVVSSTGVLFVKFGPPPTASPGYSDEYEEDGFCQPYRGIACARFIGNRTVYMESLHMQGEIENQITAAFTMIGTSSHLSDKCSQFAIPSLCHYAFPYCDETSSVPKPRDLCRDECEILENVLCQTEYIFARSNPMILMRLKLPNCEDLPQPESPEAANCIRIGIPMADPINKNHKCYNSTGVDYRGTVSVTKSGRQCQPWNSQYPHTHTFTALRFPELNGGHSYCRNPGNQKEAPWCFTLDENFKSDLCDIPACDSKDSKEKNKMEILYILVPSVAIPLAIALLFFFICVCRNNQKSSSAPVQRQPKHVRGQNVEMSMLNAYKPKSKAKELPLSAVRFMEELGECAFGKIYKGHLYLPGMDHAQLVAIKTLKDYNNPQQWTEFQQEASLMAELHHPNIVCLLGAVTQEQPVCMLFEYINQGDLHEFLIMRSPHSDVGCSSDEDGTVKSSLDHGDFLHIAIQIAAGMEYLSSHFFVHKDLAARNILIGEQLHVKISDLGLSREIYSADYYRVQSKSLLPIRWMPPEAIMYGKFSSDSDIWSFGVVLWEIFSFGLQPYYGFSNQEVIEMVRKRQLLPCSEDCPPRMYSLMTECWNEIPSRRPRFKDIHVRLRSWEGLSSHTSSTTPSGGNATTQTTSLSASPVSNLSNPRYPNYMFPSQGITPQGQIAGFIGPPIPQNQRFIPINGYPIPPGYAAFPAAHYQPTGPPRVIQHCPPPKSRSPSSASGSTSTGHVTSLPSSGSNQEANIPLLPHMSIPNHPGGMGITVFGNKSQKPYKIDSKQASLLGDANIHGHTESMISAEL
Test: flow cytometry on live JeKo-1 cells, Fab detected with anti-HA-PE
Protocol: ROR1 binding was quantitated using flow cytometry and 2.5E5 ROR1-transfected MEC cells or JeKo-1 cells for each concentration of Fab variant. The cells were placed in 50 μL of PBS with 2% FBS. Next, the cells were diluted with an equal volume of 2× stock of the test Fab variant and the cells and antibody were co-incubated on ice for 20 min. The cells were then washed 3 times with 300 μL of FACS buffer and were resuspended in 100 μL of a 70-fold dilution of anti-HA.11-PE conjugate, clone 16B12 (BioLegend, cat. #901517) and incubated on ice with reduced light for 20 min. Subsequently, the cells were washed 3 times with 300 μL of FACS buffer and fixed with 2% paraformaldehyde for 10 min at 25° C. The cells then were washed 2 times with 300 μL of FACS buffer and analyzed on a Miltenyi MACSQuant Analyzer.

Row | EC50 (read off the curve) | Binder
38 | ~1 nM | B29
39 | ~1 nM | B7
40 | ~2 nM | B11
41 | ~1 nM | B12
42 | ~2 nM | B13
43 | ~1 nM | B19
